Test results as given in PMC2709985 (Biochemistry, 2009).

Legend:
Sfp [1] = target: T1, Sfp (Bacillus subtilis, UniProt P39135); experiment: fluorescent labelling of apo MBP-PhsA-His6, SDS-PAGE; type: biochemical; conditions: acceptor apo MBP-PhsA-His6; labelled compound
T1 sequence (P39135 1-224): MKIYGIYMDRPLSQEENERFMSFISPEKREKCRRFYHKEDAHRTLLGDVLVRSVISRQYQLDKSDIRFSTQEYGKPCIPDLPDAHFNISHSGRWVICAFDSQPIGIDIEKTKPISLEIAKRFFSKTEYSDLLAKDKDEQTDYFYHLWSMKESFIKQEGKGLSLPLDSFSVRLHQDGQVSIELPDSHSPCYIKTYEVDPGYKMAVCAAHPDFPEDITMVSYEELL

Sfp [2] = target: T1, Sfp; experiment: tritium incorporation into apo MBP-PhsA-His6; type: biochemical; conditions: acceptor apo MBP-PhsA-His6; labelled compound
ATP-PPi exchange assay [3] = substrate: CC(=O)N[C@@H](CC[PH](=O)O)C(=O)O; experiment: ATP-PPi exchange assay; type: biochemical, Streptomyces viridochromogenes; conditions: holo form (phosphopantetheinylated by Sfp), apparent constant
ATP-PPi exchange assay [4] = substrate: CC(=O)N[C@@H](CCC(=O)O)C(=O)O; experiment: ATP-PPi exchange assay; type: biochemical, Streptomyces viridochromogenes; conditions: holo form (phosphopantetheinylated by Sfp), apparent constant

Molecule: CC1=CC(C)=[N+]2C1=Cc1ccc(CCC(=O)NCCN3C(=O)CC(SCCNC(=O)CCNC(=O)[C@H](O)C(C)(C)COP(=O)(O)OP(=O)(O)OC[C@H]4O[C@@H](n5cnc6c(N)ncnc65)[C@H](O)[C@@H]4OP(=O)(O)O)C3=O)n1[B-]2(F)F (some centres unmarked) [BODIPY-FL-N-(2-aminoethyl)maleimidyl-S-CoA]
- fluorescent labelling of apo MBP-PhsA-His6, SDS-PAGE (Sfp [1]): CoA analogue BODIPY-FL-N-(2-aminoethyl)maleimidyl-S-CoA was employed to install a fluorescently labeled phosphopantetheine arm

Molecule: CC(=O)SCCNC(=O)CCNC(=O)[C@H](O)C(C)(C)COP(=O)(O)OP(=O)(O)OC[C@H]1O[C@@H](n2cnc3c(N)ncnc32)[C@H](O)[C@@H]1OP(=O)(O)O [[^3H]acetyl-CoA]
- tritium incorporation into apo MBP-PhsA-His6 (Sfp [2]): [^3H]acetyl-CoA was utilized as a cosubstrate, resulting in a time-dependent increase

B1: MBP−PhsA−His6 (Streptomyces viridochromogenes) (protein)
chain: MTAATPDTAPDRTGPSPGACPVVAEFARRAQAGPDRPAVVLPEETVDYRELAARADAVARALLDSRGEGSEPVPLMVLHPAWMLAACLGVLKAGKYYVPLNPHHPDARNRDLLARLGAALVVTDGAVPGRLPGRITVLSVGELDVRPGTPGEPGPAVAPDQWAYALYTSGSTGLPKGILQNRADMRQNIDRHAALGIGPEDRVTLINADGFVAAVSNPYMALLNGAALVPYSFQRDGVHDLIDRLDAAGTTVYYSFPSFLRQAAAVSEGRTTDRVRLAYLGGESVHSSDVLAARRLFPAATVAVGLNSTETGLTRLRLIPPGAEVPDPVPVGGPVPGVEVRVEASPGRPAAVGEAGRIVVRSAFLHAAQWTDQGPRPLTEAVPEADSGTACEPAPRDFRTGDRGRLDGTGQLVHLGRVDGMVKVRGYRVETVEVESAVSAVTGVAEAAVVPYETAEHATELAAYVVAKDPDLTDAALRRALSETLPTHLVPSSVLLVPRLPRTRNGKIDRKALPDPASGTSGTAVSRPAPAHTPAPAPGDGPDEARARVLGQVGEIWSDVLGAGPVLPGDDFFSLGGTSISALRVVSRIRKELGVPLRLAVIFETPSLEAVAESVLRELKGT
- Km (ATP-PPi exchange assay [3]): 254 ± 44 µM
- kcat (ATP-PPi exchange assay [3]): 2.08 ± 0.108 s⁻¹
- kcat/Km (ATP-PPi exchange assay [3]): 8170 ± 1500 M⁻¹ s⁻¹
- Km (ATP-PPi exchange assay [4]): 493 ± 82 µM
- kcat (ATP-PPi exchange assay [4]): 0.48 ± 0.025 s⁻¹
- kcat/Km (ATP-PPi exchange assay [4]): 973 ± 167 M⁻¹ s⁻¹
